B1: MED27 (natural protein)
chain: MADVINVSVNLEAFSQAISAIQALRSSVSRVFDCLKDGMRNKETLEGREKAFIAHFQDNLHSVNRDLNELERLSNLVGKPSENHPLHNSGLLSLDPVQDKTPLYSQLLQAYKWSNKLQYHAGLASGLLNQQSLKRSANQMGVSAKRRPKAQPTTLVLPPQYVDDVISRIDRMFPEMSIHLSRPNGTSAMLLVTLGKVLKVIVVMRSLFIDRTIVKGYNENVYTEDGKLDIWSKSNYQVFQKVTDHATTALLHYQLPQMPDVVVRSFMTWLRSYIKLFQAPCQRCGKFLQDGLPPTWRDFRTLEAFHDTCRQ
B2: MED28 (natural protein)
chain: MAAPLGGMFSGQPPGPPQAPPGLPGQASLLQAAPGAPRPSSSTLVDELESSFEACFASLVSQDYVNGTDQEEIRTGVDQCIQKFLDIARQTECFFLQKRLQLSVQKPEQVIKEDVSELRNELQRKDALVQKHLTKLRHWQQVLEDINVQHKKPADIPQGSLAYLEQASANIPAPLKPT
B7: MED20 (natural protein)
chain: MGVTCVSQMPVAEGKSVQQTVELLTRKLEMLGAEKQGTFCVDCETYHTAASTLGSQGQTGKLMYVMHNSEYPLSCFALFENGPCLIADTNFDVLMVKLKGFFQSAKASKIETRGTRYQYCDFLVKVGTVTMGPSARGISVEVEYGPCVVASDCWSLLLEFLQSFLGSHTPGAPAVFGNRHDAVYGPADTMVQYMELFNKIRKQQQVPVAGIR

Assays:
Test in all cases: cryo-EM structure
MED17 = target: T1, MED17 (human, UniProt Q9NVC6 1-651)
T1 sequence: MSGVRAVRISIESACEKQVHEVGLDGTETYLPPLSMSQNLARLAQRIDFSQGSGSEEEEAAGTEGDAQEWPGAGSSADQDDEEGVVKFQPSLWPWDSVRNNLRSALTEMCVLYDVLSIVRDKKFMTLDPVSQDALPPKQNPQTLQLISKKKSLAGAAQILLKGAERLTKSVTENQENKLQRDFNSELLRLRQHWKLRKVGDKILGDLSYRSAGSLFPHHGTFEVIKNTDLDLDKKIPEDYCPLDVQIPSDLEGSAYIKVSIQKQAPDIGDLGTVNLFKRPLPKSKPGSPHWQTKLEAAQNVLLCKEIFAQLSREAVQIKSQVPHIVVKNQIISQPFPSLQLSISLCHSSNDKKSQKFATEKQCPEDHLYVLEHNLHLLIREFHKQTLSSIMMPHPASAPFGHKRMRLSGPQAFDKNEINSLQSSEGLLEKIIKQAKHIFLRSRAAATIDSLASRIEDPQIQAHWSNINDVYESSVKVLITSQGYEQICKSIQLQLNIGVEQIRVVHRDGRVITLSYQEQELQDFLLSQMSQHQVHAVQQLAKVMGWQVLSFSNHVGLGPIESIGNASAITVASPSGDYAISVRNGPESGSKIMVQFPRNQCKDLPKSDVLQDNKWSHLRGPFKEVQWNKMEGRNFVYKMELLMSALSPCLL

MED14 = MED14 (human, UniProt O60244 1-1454)
Sequence of MED14 (O60244 whole entry): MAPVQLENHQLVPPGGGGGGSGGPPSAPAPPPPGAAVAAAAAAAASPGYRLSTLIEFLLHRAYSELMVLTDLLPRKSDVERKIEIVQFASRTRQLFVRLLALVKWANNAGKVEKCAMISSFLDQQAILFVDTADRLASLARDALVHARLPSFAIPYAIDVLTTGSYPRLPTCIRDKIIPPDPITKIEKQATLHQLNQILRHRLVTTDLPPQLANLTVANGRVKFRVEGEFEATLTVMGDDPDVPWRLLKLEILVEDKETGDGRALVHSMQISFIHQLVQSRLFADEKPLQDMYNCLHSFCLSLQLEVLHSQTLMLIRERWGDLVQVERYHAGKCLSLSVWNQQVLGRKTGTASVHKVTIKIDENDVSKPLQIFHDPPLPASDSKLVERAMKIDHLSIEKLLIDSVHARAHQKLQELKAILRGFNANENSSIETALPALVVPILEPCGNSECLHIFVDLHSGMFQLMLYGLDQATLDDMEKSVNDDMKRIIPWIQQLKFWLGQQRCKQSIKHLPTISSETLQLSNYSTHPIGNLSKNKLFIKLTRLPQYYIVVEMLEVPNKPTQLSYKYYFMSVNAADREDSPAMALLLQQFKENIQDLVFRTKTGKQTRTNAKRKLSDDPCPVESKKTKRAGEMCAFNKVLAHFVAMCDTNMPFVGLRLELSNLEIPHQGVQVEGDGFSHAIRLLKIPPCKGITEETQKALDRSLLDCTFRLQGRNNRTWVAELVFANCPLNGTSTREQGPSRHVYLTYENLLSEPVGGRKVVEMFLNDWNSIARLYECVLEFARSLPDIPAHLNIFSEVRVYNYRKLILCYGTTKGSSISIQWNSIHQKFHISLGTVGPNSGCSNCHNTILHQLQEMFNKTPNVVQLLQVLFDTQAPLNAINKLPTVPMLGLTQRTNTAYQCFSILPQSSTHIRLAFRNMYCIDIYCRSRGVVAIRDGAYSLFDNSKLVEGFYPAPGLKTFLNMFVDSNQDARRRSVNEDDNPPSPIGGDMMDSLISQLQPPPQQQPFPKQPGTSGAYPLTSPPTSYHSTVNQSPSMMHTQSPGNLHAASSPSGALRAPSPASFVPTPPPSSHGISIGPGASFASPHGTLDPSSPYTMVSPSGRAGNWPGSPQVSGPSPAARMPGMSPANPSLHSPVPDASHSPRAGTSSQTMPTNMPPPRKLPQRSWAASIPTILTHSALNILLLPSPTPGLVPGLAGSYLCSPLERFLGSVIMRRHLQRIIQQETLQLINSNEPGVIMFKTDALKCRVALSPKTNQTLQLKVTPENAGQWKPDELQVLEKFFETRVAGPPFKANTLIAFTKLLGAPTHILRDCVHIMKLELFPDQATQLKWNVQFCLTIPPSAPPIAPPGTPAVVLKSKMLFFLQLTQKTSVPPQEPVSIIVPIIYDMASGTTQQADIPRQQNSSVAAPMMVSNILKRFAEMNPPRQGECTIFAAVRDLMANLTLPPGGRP

MED30 = target: T2, MED30 (human, UniProt Q96HR3 1-178)
T2 sequence: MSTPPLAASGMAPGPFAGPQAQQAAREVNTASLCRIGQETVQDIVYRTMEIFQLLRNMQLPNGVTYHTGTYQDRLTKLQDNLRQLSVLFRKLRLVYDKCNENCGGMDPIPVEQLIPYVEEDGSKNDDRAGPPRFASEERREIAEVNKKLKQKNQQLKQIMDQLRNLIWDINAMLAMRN

MED28 = target: B2
MED7 = target: T3, MED7 (human, UniProt O43513 1-233)
T3 sequence: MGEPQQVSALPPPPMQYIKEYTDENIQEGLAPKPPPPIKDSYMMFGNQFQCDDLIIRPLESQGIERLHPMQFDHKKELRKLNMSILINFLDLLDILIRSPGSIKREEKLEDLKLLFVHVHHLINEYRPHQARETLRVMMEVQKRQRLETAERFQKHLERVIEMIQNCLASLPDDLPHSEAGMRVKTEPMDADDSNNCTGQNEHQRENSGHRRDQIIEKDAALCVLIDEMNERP

MED4 = target: T4, MED4 (human, UniProt Q9NPJ6 1-270)
T4 sequence: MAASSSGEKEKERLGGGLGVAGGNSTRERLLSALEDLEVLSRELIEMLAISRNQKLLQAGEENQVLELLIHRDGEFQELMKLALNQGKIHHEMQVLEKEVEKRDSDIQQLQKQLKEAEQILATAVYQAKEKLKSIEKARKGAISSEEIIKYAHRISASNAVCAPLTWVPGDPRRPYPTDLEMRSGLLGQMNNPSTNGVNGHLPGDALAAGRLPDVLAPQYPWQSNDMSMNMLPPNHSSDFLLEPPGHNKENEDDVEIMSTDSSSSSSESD

MED8 = target: T5, MED8 (human, UniProt Q96G25 1-268)
T5 sequence: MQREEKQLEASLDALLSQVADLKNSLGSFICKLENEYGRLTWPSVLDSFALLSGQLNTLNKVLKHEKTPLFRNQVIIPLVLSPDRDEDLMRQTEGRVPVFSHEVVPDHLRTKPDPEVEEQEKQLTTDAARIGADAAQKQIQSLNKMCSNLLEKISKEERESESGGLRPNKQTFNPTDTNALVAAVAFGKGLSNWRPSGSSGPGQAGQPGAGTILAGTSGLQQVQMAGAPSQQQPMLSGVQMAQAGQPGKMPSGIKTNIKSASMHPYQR

TFIIB = target: T6, TFIIB (human, UniProt Q00403 1-316)
T6 sequence: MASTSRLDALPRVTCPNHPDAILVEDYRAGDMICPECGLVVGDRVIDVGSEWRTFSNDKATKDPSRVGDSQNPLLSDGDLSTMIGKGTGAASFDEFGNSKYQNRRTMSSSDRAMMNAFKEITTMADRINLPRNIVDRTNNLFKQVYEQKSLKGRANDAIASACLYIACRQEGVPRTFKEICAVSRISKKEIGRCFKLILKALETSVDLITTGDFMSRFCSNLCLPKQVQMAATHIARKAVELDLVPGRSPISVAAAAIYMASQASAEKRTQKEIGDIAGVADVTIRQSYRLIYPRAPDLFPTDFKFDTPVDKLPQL

MED20 = target: B7
MED27 = target: B1

Binder: B1
- binding result (MED17): binds
- binding result (MED14): binds

Binder: B2
- binding result (MED30): binds

B3: MED11 (natural protein)
chain: MATYSLANERLRALEDIEREIGAILQNAGTVILELSKEKTNERLLDRQAAAFTASVQHVEAELSAQIRYLTQVATGQPHEGSSYSSRKDCQMALKRVDYARLKLSDVARTCEQMLEN
- binding result (MED28): binds
- binding result (MED30): binds

B4: MED31 (natural protein)
chain: MAAAVAMETDDAGNRLRFQLELEFVQCLANPNYLNFLAQRGYFKDKAFVNYLKYLLYWKDPEYAKYLKYPQCLHMLELLQYEHFRKELVNAQCAKFIDEQQILHWQHYSRKRMRLQQALAEQQQQNNTSGK
- binding result (MED7): binds
- binding result (MED14): binds
- binding result (MED4): binds

B5: MED6 (natural protein)
chain: MAAVDIRDNLLGISWVDSSWIPILNSGSVLDYFSERSNPFYDRTCNNEVVKMQRLTLEHLNQMVGIEYILLHAQEPILFIIRKQQRQSPAQVIPLADYYIIAGVIYQAPDLGSVINSRVLTAVHGIQSAFDEAMSYCRYHPSKGYWWHFKDHEEQDKVRPKAKRKEEPSSIFQRQRVDALLLDLRQKFPPKFVQLKPGEKPVPVDQTKKEAEPIPETVKPEEKETTKNVQQTVSAKGPPEKRMRLQ
- binding result (MED8): binds

B6: MED18 (natural protein)
chain: MEAPPVTMMPVTGGTINMMEYLLQGSVLDHSLESLIHRLRGLCDNMEPETFLDHEMVFLLKGQQASPFVLRARRSMDRAGAPWHLRYLGQPEMGDKNRHALVRNCVDIATSENLTDFLMEMGFRMDHEFVAKGHLFRKGIMKIMVYKIFRILVPGNTDSTEALSLSYLVELSVVAPAGQDMVSDDMKNFAEQLKPLVHLEKIDPKRLM
- binding result (TFIIB): binds
- binding result (MED20): binds
- binding result (MED8): binds

Binder: B7
- binding result (MED27): binds
- binding result (MED8): binds

— article doi:10.1101/2021.03.11.435010 (bioRxiv, 2021)
